PMC11150655, “IpaA reveals distinct modes of vinculin activation during Shigella invasion and cell-matrix adhesion” (Life Science Alliance, 2024)
Where a chain is given by its changes, count along the chain named.

Key:
Settings in all cases: both partners purified
[1] = biological target: T1, vinculin D1D2 (vinculin residues 1–484) (human, UniProt P18206 1-484); test: native gel or EMSA; band A′ cut from the CN-PAGE gel, run in a second dimension on SDS–PAGE, Coomassie staining and scanning densitometry of D1D2 and aVBD (N = 2)
T1 construct: vinculin, human, head subdomains D1 and D2, residues 1-484; Valencia-Gallardo et al, 2023) for the plasmid and the purification; also called WT; parental D1D2
T1 sequence (looked up): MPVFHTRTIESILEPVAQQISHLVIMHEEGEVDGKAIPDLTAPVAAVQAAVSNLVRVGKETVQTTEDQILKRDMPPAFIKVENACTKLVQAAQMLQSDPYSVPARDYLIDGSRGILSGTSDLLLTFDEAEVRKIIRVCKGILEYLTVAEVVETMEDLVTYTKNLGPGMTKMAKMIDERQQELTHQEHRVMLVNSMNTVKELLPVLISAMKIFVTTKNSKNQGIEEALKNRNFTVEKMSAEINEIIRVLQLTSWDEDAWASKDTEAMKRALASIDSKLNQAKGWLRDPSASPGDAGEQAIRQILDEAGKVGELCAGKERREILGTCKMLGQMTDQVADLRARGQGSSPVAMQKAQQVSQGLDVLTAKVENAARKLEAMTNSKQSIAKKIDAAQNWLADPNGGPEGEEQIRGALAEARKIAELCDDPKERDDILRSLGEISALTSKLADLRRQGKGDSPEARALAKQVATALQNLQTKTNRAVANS

[2] = biological target: T2, vinculin D1D2 V367D (human, UniProt P18206 1-484, V367D); test: native gel or EMSA; CN-PAGE: D1D2 variant (20 μM) with increasing molar ratio of aVBD, 60 min at 21°C; 7.5% (Fig 2, methods) or 10% (Fig 3, S3) native polyacrylamide gel, Coomassie staining, scanning densitometry normalised to monomeric D1D2 without aVBD; rates from linear fits against the aVBD:D1D2 ratio
T2 construct: vinculin, human, head subdomains D1 and D2, residues 1-484, with V367D
T2 sequence (looked up): T1 sequence (looked up) with V367D

[3] = biological target: T3, vinculin D1D2 K386D (human, UniProt P18206 1-484, K386D); test: as above
T3 construct: vinculin, human, head subdomains D1 and D2, residues 1-484, with K386D
T3 sequence (looked up): T1 sequence (looked up) with K386D

[4] = biological target: T4, vinculin D1D2 N393D (human, UniProt P18206 1-484, N393D); test: as above
T4 construct: vinculin, human, head subdomains D1 and D2, residues 1-484, with N393D
T4 sequence (looked up): T1 sequence (looked up) with N393D

[5] = biological target: T5, vinculin D1D2 E143K (human, UniProt P18206 1-484, E143K); test: as above
T5 construct: vinculin, human, head subdomains D1 and D2, residues 1-484, with E143K
T5 sequence (looked up): T1 sequence (looked up) with E143K

[6] = biological target: T6, vinculin D1D2 K139E (human, UniProt P18206 1-484, K139E); test: as above
T6 construct: vinculin, human, head subdomains D1 and D2, residues 1-484, with K139E
T6 sequence (looked up): T1 sequence (looked up) with K139E

[7] = biological target: T1, vinculin D1D2 (vinculin residues 1–484); test: as above
[8] = biological target: T7, vinculin D1D2 D389R (human, UniProt P18206 1-484, D389R); test: as above
T7 construct: vinculin, human, head subdomains D1 and D2, residues 1-484, with D389R
T7 sequence (looked up): T1 sequence (looked up) with D389R

B1: IpaA domain containing all three IpaA VBS1-3 (aVBD) (domain or fragment)
chain: GDTYLTRETIFEASKKVTNSLSNLISLIGTKSGTQERELQEKSKDITKSTTEHRINNKLKVTDANIRNYVTETNADTIDKNHAIYEKAKEVSSALSKVLSKIDDTSAELLTDDISDLKNNNDITAENNNIYKAAKDVTTSLSKVLKNINKD
notes: The plasmid is said to be described previously; also called A483; source: E. coli DH5-α, pGEX-4T2-aVBD, purified (GSTrap, thrombin on the column, SEC on Superdex 200)
stoichiometry N [1]: 3.2 D1D2:aVBD molar ratio
rate of monomer disappearance [2]: -0.88 AU^−1
rate of monomer disappearance [3]: -1.29 AU^−1
rate of monomer disappearance [4]: -1.32 AU^−1
rate of monomer disappearance [5]: -0.88 AU^−1
rate of monomer disappearance [6]: -1.42 AU^−1
rate of monomer disappearance [7]: -1.06 AU^−1
rate of monomer disappearance [8]: -1.06 AU^−1
